In PMC11459905, “Identification of SLC25A46 interaction interfaces with mitochondrial membrane fusogens Opa1 and Mfn2” (The Journal of Biological Chemistry, 2024):

Target: T1, Strep-Opa1 (s-Opa1, amino acids 253-960), expressed in P. pastoris (human, UniProt O60313 253-960)
T1 construct: Opa1 (optic atrophy 1), human, residues 253-960 (s-Opa1); N-terminal Twin-Strep tag, HRV 3C cleavage site and (G4S)3 linker; The methods also name a tagged Opa1(263-960); also called optic atrophy 1; Opa1(253-960); source: P. pastoris SMD1163, in GDN extract (lysate); purified as a complex with SLC25A46 for cross-linking; not shown: Twin-Strep, N-terminal, kept
T1 sequence (looked up): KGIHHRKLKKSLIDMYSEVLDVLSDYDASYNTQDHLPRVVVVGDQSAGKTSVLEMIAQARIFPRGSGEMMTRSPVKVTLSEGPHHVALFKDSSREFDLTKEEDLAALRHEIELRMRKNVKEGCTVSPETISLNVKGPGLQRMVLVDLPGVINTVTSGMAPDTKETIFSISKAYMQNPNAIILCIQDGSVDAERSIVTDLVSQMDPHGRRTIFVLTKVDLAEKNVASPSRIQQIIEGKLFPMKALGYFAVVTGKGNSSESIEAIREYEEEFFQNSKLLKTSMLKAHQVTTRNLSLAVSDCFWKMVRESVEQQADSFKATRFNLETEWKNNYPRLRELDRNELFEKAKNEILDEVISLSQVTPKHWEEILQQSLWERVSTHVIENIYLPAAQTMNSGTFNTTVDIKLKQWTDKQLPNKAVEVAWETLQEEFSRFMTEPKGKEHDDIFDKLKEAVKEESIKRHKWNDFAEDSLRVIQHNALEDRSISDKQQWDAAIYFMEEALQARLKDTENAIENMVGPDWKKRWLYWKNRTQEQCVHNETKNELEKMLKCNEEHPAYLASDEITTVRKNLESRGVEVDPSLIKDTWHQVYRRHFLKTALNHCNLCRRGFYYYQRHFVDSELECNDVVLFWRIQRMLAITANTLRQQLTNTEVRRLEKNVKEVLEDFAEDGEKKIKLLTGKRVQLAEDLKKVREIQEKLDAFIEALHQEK
Assay: pull-down; GDN extracts of P. pastoris expressing or coexpressing the proteins; Strep-tagged Opa1 or Mfn2 held on StrepTactin XT 4Flow resin in a spin column, 4 °C, 25 mM Hepes, 150 mM NaCl, pH 8.0, washes with 0.1% GDN, elution with 50 mM biotin; Western blot; also with GTPγS, GMPPCP or GDP added to the lysates (no effect on coelution)
Details: partners not purified

binding result: binds
B1: Solute carrier family 25 member A46 with C-terminal deca-histidine (SLC25A46-His), wild type (natural protein, human, UniProt Q96AG3 1-418, looked up)
chain: MHPRRPDGFDGLGYRGGARDEQGFGGAFPARSFSTGSDLGHWVTTPPDIPGSRNLHWGEKSPPYGVPTTSTPYEGPTEEPFSSGGGGSVQGQSSEQLNRFAGFGIGLASLFTENVLAHPCIVLRRQCQVNYHAQHYHLTPFTVINIMYSFNKTQGPRALWKGMGSTFIVQGVTLGAEGIISEFTPLPREVLHKWSPKQIGEHLLLKSLTYVVAMPFYSASLIETVQSEIIRDNTGILECVKEGIGRVIGMGVPHSKRLLPLLSLIFPTVLHGVLHYIISSVIQKFVLLILKRKTYNSHLAESTSPVQSMLDAYFPELIANFAASLCSDVILYPLETVLHRLHIQGTRTIIDNTDLGYEVLPINTQYEGMRDCINTIRQEEGVFGFYKGFGAVIIQYTLHAAVLQITKIIYSTLLQNNI
notes: SLC25A46, human; gene synthesized (GenScript), cloned into pPICZ A; C terminus fused to (G4S)3 linker, TEV cleavage site and deca-histidine; only a pPICZ A (P. pastoris) construct of SLC25A46 is described; also called WT SLC25A46; source: P. pastoris SMD1163, in GDN extract (lysate); also recombinantly expressed and purified; not shown: His10, C-terminal, kept
